Reference: the supplement of paper PMC10065799, “High-throughput profiling of sequence recognition by tyrosine kinases and SH2 domains using bacterial peptide display” (eLife, 2023)

Assays:
[1] = biological target: EPHB1 (UniProt P54762); experiment: phosphorylation enrichment, bacterial display (enrichment ratio); higher = better substrate or ligand; peptides without Tyr show the background
[2] = biological target: Hck (UniProt P08631); experiment: as above
[3] = biological target: Fes (UniProt P07332); experiment: as above
[4] = biological target: Fyn (UniProt P06241); experiment: as above
[5] = biological target: FGFR3 (UniProt P22607); experiment: as above
[6] = biological target: MERTK (UniProt Q12866); experiment: as above
[7] = test system: c-Src; experiment: as above
[8] = biological target: Jak2 (UniProt O60674); experiment: as above
[9] = test system: c-Abl (mouse); experiment: as above
[10] = biological target: FGFR1 (UniProt P11362); experiment: as above
[11] = biological target: EPHB2 (UniProt P29323); experiment: as above
[12] = test system: AncSZ; experiment: as above
[13] = test system: Fer (mouse); experiment: as above
[14] = biological target: SHP2-C SH2; experiment: SH2 binding enrichment of the phosphorylated peptide, bacterial display (enrichment ratio); higher = better substrate or ligand; peptides without Tyr show the background
[15] = biological target: Grb2 SH2 (UniProt P62993); experiment: as above
[16] = biological target: c-Src SH2; experiment: as above
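Wherever SH2 binding enrichment of the phosphorylated peptide, bacterial display is given: peptide library displayed on the E. coli surface as eCPX fusions, selected cells deep-sequenced, score is each peptide's frequency after selection divided by its frequency in the input.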
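Wherever phosphorylation enrichment, bacterial display is given: 11-residue human phosphosite peptides and single-mutation variants displayed on the E. coli surface, counted by deep sequencing, each peptide's frequency after selection divided by its frequency in the unselected input library; frequency after pTyr selection over input frequency; kinase dosed for 20-30% of maximal phosphorylation in three min.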

Grb2 SH2, sequence (P62993 whole entry, looked up): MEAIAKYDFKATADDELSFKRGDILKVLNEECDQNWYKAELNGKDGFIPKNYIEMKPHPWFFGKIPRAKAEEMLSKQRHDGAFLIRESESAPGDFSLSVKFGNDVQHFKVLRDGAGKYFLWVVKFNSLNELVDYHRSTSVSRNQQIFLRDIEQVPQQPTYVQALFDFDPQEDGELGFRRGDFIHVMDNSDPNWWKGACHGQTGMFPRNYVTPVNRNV
Hck, sequence (P08631 whole entry, looked up): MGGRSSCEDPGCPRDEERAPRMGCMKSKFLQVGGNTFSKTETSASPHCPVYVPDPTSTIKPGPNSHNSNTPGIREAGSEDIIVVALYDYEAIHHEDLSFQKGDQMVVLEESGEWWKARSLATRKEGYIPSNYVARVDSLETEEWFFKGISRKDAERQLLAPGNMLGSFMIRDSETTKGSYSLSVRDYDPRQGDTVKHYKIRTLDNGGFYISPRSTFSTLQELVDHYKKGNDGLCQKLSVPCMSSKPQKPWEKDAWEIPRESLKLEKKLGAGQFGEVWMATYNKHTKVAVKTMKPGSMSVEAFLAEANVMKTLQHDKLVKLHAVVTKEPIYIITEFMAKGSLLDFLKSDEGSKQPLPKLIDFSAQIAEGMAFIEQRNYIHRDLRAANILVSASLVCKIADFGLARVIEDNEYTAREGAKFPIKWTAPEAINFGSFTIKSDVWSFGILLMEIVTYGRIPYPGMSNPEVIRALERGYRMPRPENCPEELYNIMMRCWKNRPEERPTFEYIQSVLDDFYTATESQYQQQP
EPHB1, sequence (P54762 whole entry, looked up): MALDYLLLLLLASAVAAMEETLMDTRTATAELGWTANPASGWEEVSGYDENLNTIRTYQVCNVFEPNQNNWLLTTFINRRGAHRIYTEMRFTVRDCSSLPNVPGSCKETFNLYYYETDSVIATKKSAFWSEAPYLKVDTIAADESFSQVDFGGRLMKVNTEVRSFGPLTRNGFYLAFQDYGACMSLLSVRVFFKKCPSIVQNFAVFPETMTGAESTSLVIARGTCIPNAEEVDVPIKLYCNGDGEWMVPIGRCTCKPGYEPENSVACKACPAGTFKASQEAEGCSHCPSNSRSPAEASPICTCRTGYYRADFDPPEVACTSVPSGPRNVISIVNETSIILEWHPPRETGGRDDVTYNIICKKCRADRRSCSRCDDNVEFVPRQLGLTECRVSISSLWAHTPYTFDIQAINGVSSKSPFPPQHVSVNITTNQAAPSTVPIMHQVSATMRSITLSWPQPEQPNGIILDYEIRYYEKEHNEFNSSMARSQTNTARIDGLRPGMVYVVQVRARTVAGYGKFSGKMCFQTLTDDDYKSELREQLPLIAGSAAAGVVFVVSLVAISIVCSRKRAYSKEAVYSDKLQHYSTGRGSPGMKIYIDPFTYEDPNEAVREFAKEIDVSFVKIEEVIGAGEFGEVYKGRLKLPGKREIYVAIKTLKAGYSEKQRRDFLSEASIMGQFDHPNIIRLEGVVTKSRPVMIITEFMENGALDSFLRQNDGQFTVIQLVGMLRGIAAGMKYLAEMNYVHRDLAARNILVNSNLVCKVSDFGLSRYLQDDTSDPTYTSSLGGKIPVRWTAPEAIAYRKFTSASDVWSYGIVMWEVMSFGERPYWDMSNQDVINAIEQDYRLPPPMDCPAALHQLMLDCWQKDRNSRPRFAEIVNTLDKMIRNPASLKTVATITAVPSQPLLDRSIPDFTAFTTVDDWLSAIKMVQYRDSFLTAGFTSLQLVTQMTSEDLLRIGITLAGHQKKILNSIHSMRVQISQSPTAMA
MERTK, sequence (Q12866 whole entry, looked up): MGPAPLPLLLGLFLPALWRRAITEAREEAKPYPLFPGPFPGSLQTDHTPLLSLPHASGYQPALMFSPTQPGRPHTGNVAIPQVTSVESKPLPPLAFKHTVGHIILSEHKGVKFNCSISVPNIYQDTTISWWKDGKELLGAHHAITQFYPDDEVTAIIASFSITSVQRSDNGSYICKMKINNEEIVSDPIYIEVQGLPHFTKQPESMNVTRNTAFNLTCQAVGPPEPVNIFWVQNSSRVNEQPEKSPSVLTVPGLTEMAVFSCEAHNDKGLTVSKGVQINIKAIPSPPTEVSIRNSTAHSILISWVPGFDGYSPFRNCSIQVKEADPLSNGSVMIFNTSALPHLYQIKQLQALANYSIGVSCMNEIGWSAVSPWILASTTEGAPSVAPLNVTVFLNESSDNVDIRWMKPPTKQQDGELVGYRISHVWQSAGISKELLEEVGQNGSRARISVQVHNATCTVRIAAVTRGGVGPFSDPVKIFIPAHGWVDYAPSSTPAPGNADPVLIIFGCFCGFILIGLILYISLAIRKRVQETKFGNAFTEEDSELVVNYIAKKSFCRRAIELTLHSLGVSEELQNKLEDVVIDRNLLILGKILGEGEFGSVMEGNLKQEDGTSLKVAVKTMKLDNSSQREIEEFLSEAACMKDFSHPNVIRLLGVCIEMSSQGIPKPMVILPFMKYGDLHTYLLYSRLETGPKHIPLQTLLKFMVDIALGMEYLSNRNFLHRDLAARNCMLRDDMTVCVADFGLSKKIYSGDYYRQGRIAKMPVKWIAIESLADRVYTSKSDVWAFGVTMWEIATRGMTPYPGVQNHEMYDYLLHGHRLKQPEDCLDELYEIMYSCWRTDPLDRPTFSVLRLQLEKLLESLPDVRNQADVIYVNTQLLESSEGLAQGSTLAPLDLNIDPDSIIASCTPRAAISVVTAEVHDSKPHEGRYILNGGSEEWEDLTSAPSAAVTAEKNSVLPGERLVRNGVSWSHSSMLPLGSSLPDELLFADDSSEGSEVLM
FGFR3, sequence (P22607 whole entry, looked up): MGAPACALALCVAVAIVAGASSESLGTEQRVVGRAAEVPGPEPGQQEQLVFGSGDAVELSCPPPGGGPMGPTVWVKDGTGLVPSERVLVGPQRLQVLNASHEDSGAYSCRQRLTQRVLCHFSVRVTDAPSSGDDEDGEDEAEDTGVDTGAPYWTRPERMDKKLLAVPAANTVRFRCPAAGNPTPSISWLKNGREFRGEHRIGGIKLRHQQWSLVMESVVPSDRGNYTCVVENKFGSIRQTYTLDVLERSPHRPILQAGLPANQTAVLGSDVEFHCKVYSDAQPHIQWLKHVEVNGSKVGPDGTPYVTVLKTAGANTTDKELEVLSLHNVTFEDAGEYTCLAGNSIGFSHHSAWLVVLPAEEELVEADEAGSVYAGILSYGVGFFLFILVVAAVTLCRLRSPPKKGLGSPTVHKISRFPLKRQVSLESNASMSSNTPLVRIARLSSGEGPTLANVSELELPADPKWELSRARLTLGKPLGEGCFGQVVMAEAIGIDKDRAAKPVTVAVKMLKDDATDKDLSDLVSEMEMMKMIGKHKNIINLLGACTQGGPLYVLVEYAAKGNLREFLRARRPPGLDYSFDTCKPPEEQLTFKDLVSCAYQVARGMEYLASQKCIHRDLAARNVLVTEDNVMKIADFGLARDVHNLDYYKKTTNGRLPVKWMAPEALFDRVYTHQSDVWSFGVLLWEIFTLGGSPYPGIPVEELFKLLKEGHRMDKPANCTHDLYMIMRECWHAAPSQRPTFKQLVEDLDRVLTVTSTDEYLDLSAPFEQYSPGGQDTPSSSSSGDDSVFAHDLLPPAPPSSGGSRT
Fes, sequence (P07332 whole entry, looked up): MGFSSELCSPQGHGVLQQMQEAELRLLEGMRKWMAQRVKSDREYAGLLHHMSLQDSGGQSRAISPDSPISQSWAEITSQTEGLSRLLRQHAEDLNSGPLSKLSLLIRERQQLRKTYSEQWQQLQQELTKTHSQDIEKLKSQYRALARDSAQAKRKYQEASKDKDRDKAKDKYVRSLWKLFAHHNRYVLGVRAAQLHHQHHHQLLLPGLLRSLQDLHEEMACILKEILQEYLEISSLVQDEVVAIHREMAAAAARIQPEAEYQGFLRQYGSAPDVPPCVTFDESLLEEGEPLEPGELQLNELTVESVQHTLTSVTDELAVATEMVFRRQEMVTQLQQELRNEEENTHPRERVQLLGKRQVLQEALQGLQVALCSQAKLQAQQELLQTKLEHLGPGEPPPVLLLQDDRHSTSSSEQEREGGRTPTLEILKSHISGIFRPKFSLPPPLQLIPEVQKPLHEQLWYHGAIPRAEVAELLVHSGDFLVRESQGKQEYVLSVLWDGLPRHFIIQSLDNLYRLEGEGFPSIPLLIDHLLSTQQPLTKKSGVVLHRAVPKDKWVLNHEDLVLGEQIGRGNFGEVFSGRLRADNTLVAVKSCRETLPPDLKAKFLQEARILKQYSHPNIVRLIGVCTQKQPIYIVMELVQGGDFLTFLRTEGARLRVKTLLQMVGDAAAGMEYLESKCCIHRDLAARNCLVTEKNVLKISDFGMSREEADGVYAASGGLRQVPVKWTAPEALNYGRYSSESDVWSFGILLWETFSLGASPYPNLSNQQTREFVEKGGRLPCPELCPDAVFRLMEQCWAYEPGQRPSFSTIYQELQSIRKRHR
Fyn, sequence (P06241 whole entry, looked up): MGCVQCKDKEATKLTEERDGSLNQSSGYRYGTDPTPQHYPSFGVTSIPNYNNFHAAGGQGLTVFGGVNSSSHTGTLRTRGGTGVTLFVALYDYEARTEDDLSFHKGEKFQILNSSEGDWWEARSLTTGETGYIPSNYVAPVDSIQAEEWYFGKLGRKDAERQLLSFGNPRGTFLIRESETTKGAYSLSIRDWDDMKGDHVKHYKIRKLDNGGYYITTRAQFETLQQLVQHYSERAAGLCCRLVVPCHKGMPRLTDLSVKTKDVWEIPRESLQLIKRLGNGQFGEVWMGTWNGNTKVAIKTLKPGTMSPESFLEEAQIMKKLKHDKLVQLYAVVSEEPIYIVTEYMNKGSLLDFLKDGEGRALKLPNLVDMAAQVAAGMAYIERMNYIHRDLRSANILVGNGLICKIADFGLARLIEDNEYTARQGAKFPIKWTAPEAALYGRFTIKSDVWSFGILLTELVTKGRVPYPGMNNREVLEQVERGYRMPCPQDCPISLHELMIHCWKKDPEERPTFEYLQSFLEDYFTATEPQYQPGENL

Sequence	phosphorylation enrichment [1]	phosphorylation enrichment [2]	phosphorylation enrichment [3]	phosphorylation enrichment [4]	phosphorylation enrichment [5]	phosphorylation enrichment [6]	phosphorylation enrichment [7]	phosphorylation enrichment [8]	phosphorylation enrichment [9]	phosphorylation enrichment [10]	phosphorylation enrichment [11]	phosphorylation enrichment [12]	phosphorylation enrichment [13]	SH2 binding enrichment [14]	SH2 binding enrichment [15]	SH2 binding enrichment [16]
HAVFVYDICHV [TWNK_Y508_YF]	1.49	2.8	2.02	4.27	1.05	2.62	4.61	1.65	1.47	0.631	1.36	1.88	3.38	1.27	0.895	0.531
NRVEIYEKTVE [CYFIP1_Y108]	0.713	0.628	1.18	0.511	0.696	0.5	0.599	1.27	0.919	0.523	0.654	1.07	0.582	0.85	0.803	0.678
LFHENYNAGTF [CFI_Y421_I416L_YF]	0.848	0.596	1.11	0.683	0.941	0.654	0.649	1.07	0.597	0.634	1.23	0.928	0.822	0.856	0.72	0.539
LFSGDCFRIQG [DDR2_Y740_Y740C_YF]	0.554	0.486	1.15	0.472	0.693	0.425	0.459	0.764	0.84	0.516	0.602	0.931	0.468	0.524	0.844	0.553
DQVEQYKKELE [LMNA_Y259]	0.67	0.509	1.2	0.516	0.688	0.527	0.603	0.956	0.878	0.561	0.644	1.32	0.534	0.66	0.956	0.841
SYPHEYGSQEG [RBM10_Y48_R46H]	0.483	0.458	0.87	0.402	0.559	0.465	0.415	0.767	0.591	0.54	0.44	0.835	0.411	0.699	0.825	0.441
SHGKRYRVPSD [HHIPL2_Y395]	0.254	0.274	0.413	0.395	0.366	0.374	0.352	0.314	0.337	0.301	0.274	0.379	0.285	0.592	0.887	0.557
QLCVNYPGGYT [PROS1_Y259]	1.32	0.965	1.66	1	1.42	0.513	0.537	0.999	0.845	0.767	0.772	1.24	0.811	0.571	0.796	0.528
